From patent US20140227188

Tested on: T1, Cathepsin E-activatable 5-ALA prodrug, H-Arg-Gln-Ala-Gly-Phe-Ser-Leu-5-ALA-OH
T1 sequence: RQAGFSL

Substance	proteolytic cleavage of the prodrug, LC-MS (50 pmol and 100 pmol enzyme)	proteolytic cleavage of the prodrug, fragments identified by LC-MS (50 pmol enzyme)
Cathepsin B (purified proteolytic enzyme)	A higher concentration of Cath B and D (100 pmol) showed no sign of cleavage of the 5-ALA prodrug at the link between 5-ALA and the rest of the peptide substrate	
Cathepsin E (purified proteolytic enzyme)		Cath E was the only tested protease capable of cleaving the 5-ALA prodrug to two major metabolic fragments
Cathepsin D (purified proteolytic enzyme)	A higher concentration of Cath B and D (100 pmol) showed no sign of cleavage of the 5-ALA prodrug at the link between 5-ALA and the rest of the peptide substrate	
